Data from US20170107290A1.

Target: human Axl on MDA-MB-231 cells (human) (UniProt P30530)
Chain of UniProt P30530 (P30530 26-894 Q764R limits assumed): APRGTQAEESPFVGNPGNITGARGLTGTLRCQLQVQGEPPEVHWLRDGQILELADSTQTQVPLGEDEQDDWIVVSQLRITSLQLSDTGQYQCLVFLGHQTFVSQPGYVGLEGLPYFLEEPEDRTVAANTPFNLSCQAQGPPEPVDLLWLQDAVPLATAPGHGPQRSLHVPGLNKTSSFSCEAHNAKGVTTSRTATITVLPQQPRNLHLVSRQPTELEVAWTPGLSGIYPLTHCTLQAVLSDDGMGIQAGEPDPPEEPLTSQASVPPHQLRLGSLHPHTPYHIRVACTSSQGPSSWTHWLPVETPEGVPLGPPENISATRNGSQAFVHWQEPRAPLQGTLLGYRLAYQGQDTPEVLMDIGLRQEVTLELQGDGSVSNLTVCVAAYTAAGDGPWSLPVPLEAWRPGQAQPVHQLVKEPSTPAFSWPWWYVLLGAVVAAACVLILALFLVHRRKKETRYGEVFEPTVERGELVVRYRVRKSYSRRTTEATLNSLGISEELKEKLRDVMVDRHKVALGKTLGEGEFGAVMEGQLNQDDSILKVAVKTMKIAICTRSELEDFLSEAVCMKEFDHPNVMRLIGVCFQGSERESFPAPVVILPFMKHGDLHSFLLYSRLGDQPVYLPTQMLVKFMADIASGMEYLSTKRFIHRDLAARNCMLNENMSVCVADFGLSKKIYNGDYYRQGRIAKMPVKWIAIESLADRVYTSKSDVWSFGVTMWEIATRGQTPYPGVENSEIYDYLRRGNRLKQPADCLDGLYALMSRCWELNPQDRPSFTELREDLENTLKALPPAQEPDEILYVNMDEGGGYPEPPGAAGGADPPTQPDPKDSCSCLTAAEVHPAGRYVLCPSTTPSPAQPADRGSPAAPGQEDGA

Substance	EC50 (pM), concentration leading to 50% cell killing, XTT/PMS viability of MDA-MB-231 cells after 72 h [table]
Saporin	79800 pM
Control SAP	4080 pM
